Results reported in the DeepSol protein solubility set.

test: soluble on expression in E. coli; label from the status in PepcDB or PDB records

**Q.** For “LPLCFADASGTLRYVNDRFTRLFGYAPEDIPTQEEWWSRVCTDGRCRGETADAWQASVQRGPNGASDIEPAEFRVACKNGDIRLVEVSGITIEGTVLATFIDI”, which “soluble on expression in E. coli” value is on record?
**A.** not soluble

**Q.** With “MSTLQAAAHGRIVQLSRIRKEIADLAKNKRRFIKDFRKIEKCKDIFQFKIIGDGVLYKNMIFTLTLDVNVEYPFKPPYLKFCHNVYHPNVDPVTCELCSPMLLQENWKPETTMEDVLLNLIVLLNEPDLSRPVNIDAAHDYIHNKVEFVKKSTELAKKWN” as the sequence, how does the “soluble on expression in E. coli” value read?
**A.** not soluble

**Q.** Which “soluble on expression in E. coli” value does the source give for “MTFRYRGPSPKGDQPKAIAGLVEALRDGERFVTLLGATGTGKTVTMAKVIEALGRPALVLAPNKILAAQLAAEFRELFPENAVEYFISYYDYYQPEAYVPGKDLYIEKDASINPEIERLRHSTTRSLLTRRDVIVVASVSAIYGLGDPREYRARNLVVERGKPYPREVLLERLLELGYQRNDIDLSPGRFRAKGEVLEIFPAYETEPIRVELFGDEVERISQVHPVTGERLRELPGFVLFPATHYLSPEGLEEILKEIEKELWERVRYFEERGEVLYAQRLKERTLYDLEMLRVMGTCPGVENYARYFTGKAPGEPPYTLLDYFPEDFLVFLDESHVTVPQLQGMYRGDYARKKTLVDYGFRLPSALDNRPLRFEEFLERVSQVVFVSATPGPFELAHSGRVVEQIIRPTGLLDPLVRVKPTENQILDLMEGIRERAARGERTLVTVLTVRMAEELTSFLVEHGIRARYLHHELDAFERQALIRDLRLGHYDCLVGINLLREGLDIPEVSLVAILDADKEGFLRSERSLIQTIGRAARNARGEVWLYADRVSEAMQRAIEETNRRRALQEAYNLEHGITPETVRKEVRAVIRPEGYEEAPLEADLSGEDLRERIAELELAMWQAAEALDFERAARLRDEIRALEARLQGVRAPEPVPGGRKRKRR” here?
**A.** soluble

**Q.** With “MAHHHHHHMGKVRKNKQVRNLLKSLTERVDTDDGENEYARLTQTPVVSMRLSKVKFKTSLQNVLVEPYTERVKDFVAKNNYEIRMERALLDEIKNANQNMNRIGDVLSARGGKQGKTRDNHIIMSRYFHYLKDKDEDFGLSFFPVYKTFKSNASHFGDNLSSSLYPHELLQMGSMSSESFLKNSPKRISFPERGDS” as the sequence, how does the “soluble on expression in E. coli” value read?
**A.** not soluble

**Q.** Which “soluble on expression in E. coli” value does the source give for “QKPYKETYGISHITRHDMLQIPEQQKNEKYQVPEFDSSTIKNISSAKGLDVWDSWPLQNADGTVANYHGYHIVFALAGDPKNADDTSIYMFYQKVGETSIDSWKNAGRVFKDSDKFDANDSILKDQTQEWAGSATFTSDGKIRLFYTDFSGKHYGKQTLTTAQVNVSASDSSLNINGVEDYKSIFDGDGKTYQNVQQFIDEGNYSSGDNHTLRDPHYVEDKGHKYLVFEANTGTEDGYQGEESLFNKAYYGKSTSFFRQESQKLLQSDKKRTAELANGALGMIELNDDYTLKKVMKPLIASNTVTDEIERANVFKMNGKWYLFTDSRGSKMTIDGITSNDIYMLGYVSNSLTGPYKPLNKTGLVLKMDLDPNDVTFTYSHFAVPQAKGNNVVITSYMTNRGFYADKQSTFAPSFLLNIKGKKTSVVKDSILEQGQLTVN” here?
**A.** soluble

**Q.** Which “soluble on expression in E. coli” value does the source give for “EVKLEESGGGLVQPGGSMKLSCATSGFTFSDAWMDWVRQSPEKGLEWVAEIRNKANNHATYYAESVKGRFTISRDDSKRRVYLQMNTLRAEDTGIYYCTGIYYHYPWFAYWGQGTLVTVSAEP” here?
**A.** soluble

**Q.** Which “soluble on expression in E. coli” value does the source give for “PKPPYSYIALITMAIRDSAGGRLTLAEINEYLMGKFPFFRGSYTGWRNSVRHNLSLNDCFVKVLRDPSRPWGKDNYWMLNPNSEYTFADGVFRRRRYRLS” here?
**A.** soluble

**Q.** For “MLDSYPGHFLPNTEAPTEEEALIALLALGGYDPDNMDGKPLTMESAVEILRKDGSALASLEEETILNLKETYVNSVGLLGKYVPKVYNGDILFFRSTVIPDWFDPISPNTWLNYLDGQIVQHDIDCRHKDLCQPGPLTEIGQVLAKYLQNKKGVSRV”, which “soluble on expression in E. coli” value is on record?
**A.** not soluble

**Q.** With “METTQKDELSSFLSVLPPVDFCCVYGSTLHPNNQDKSKMVDYILGVSDPIKWHSANLKMNSDHYASWMVHLGGARLITNVADKVGVGVHFNPFVNWNDRKLKYGVVRMHDLVQDILDWKRFYLSGRLQKPVHMLVDNLDIEDVNSVNKRAAISAALLLLPSKFTEEDLYAKICSLSYMGDLRMFFAEDTNKVNKIVKGQFDLFQSMYKPFLEECETKNLLRFSSAEASHTKLVQDSSLSATRSLVSSLPASVRSQMGKSLGEKKFVSETGRVMGEVCISSREEAAKCMEKVMRRRVMVSSGRQAVSGFLAAGAINATMYLSQKMRKAWNSRA” as the sequence, how does the “soluble on expression in E. coli” value read?
**A.** soluble

**Q.** Which “soluble on expression in E. coli” value does the source give for “MAPTMNNGWMDSLSWIKSETPENSVVTCWWDNGHIYTWATRKMVTFDGGSQNTPRAYWVGHAFSTSDENLSVGILRMLATSGDSAYDDDSILIKKTGSIKDTVDILNKILPLTRTEAKASLVNNYDLTDAEAEEVLDLTHPKVTNPDYLITYNRMTSIASVWSMFGNWNFSLPASTENSDREMGLEHHHHHH” here?
**A.** soluble

**Q.** Which “soluble on expression in E. coli” value does the source give for “MGSDKIHHHHHHMETGLLLTLLNKTTSLSVNQKTGIEVVSCTFNDLINTFQKAIPNTNIKGQLCIPEYQRPYVWKEKQINRLLDDFIEYYKNTDNDKPLFYLGSIIVHKDEGTLKIIDGQQRITTLLLINSIINKEIKSGIQYTSTTSINNIKRNFSYLKSVHAKDVFDYADTEVLNYIDFDKINVTLVVTATEDLAYTFFETQNTGGVRLSGSDIIKAHHLRAISSEKNINYQARKWEGIESEKIESIIQNLTKIRFWDNRNWRRFPFYRDEKGIKEVLIEEFTENTKHDKEDISFYYSAVKMEAGRAFQMHESNYKQLKQPLSDGNNTLDYINDYVHLHDVLFNRSKKDYRVSDAFYDFNEKLMHGNSGTLFLKELLEICIITYVSRFGFYRLFEASLWLYRSIYSLRVSSSRNVREDSIFKFVFENQFIDNIIEVYTVDELILYLKRFKYTFNTDNLGVKESKDKHIGSLNNYFNEFGKTEDFKKTPKAFDKAFLTAIVTKIKENNEQ” here?
**A.** not soluble

**Q.** For “VDFHGYARSGIGWTGSGGEQQCFQTTGAQSKYRLGNECETYAELKLGQEVWKEGDKSFYFDTNVAYSVAQQNDWEATDPAFREANVQGKNLIEWLPGSTIWAGKRFYQRHDVHMIDFYYWDISGPGAGLENIDVGFGKLSLAATRSSEAGGSSSFASNNIYDYTNETANDVFDVRLAQMEINPGGTLELGVDYGRANLRDNYRLVDGASKDGWLFTAEHTQSVLKGFNKFVVQYATDSMTSQGKGLSQGSGVAFDNEKFAYNINNNGHMLRILDHGAISMGDNWDMMYVGMYQDINWDNDNGTKWWTVGIRPMYKWTPIMSTVMEIGYDNVESQRTGDKNNQYKITLAQQWQAGDSIWSRPAIRVFATYAKWDEKWGYDYTGNADNNANFGKAVPADFNGGSFGRGDSDEWTFGAQMEIWW”, which “soluble on expression in E. coli” value is on record?
**A.** soluble

**Q.** Which “soluble on expression in E. coli” value does the source give for “MKDIEKARRYLRNAGEMLRKNEVDEDGIYNNRKHVKIAGNRAYSGVLTALDAVLGNKTSDRKTLDWYEEELTNIDPKILPYFLTAYDVLYLAMGYDGNLIAAISKEGLDIAEKIINWAEQRTAA” here?
**A.** not soluble

**Q.** With “MALTCTDMSDAVAGSDAEGLTADAIVVGAGLAGLVAACELADRGLRVLILDQENRANVGGQAFWSFGGLFLVNSPEQRRLGIRDSHELALQDWLGTAAFDRPEDYWPEQWAHAYVDFAAGEKRSWLRARGLKIFRWWAGPSVVVTTRRGTATRCPVSTSPGVLGRLWSTYSCVSCVIAPRCALRTATRSTNLEHHHHHH” as the sequence, how does the “soluble on expression in E. coli” value read?
**A.** not soluble

**Q.** Which “soluble on expression in E. coli” value does the source give for “MPSMAEIYVKELRERDPATVDTLFLDNAEDGQIGGLTDQLINLEMLSMVKCGLTTLAGFPTLPALTYLDISDNQLGDNASFDVLVKNAPDLKKITLASNKLSLDNLRCLKVLPNLFELDLSNNPSLGLLEDYREKMFEMIPSLKILDGCDVDGEEVEEEFAGEGGEDSEEGSGDEDGPGLSYLEKSQFSDDETDDYAPEGGDAEPRGTKRGASDNGEEPDNKKAAGDDE” here?
**A.** soluble

**Q.** Which “soluble on expression in E. coli” value does the source give for “MVRKVLIIGGGFSGMAAAIQMRKAGIDVDLVEIDPNWRPEGAGITVNGPTLRALETIGVFDEFARRGFTSSGVDLFTPTGQKIGEIPTPKVAGSDVPGGGGIMRPELGRILADATRGSDVSVRVGCTYTAIEQTGDQVTVAFTDGTTDTYDLVVAADGVHSKTRERFFPEVKPPQYIGQGVWRTVLPRPAEIVRPRMWLGGTVKVGVNPVSQTHLYMFITEARPEKTNLDPATFPDLVTSMLKSFPDPIVQSLIPHVFAAEAAIDYRPLANLLVPAPWNRGRVILIGDTVAATTPHLASGAGIGIESGIILAEELAKAATLQDAFDGFHARRWERCRMVIENSERLCRIEMENGDKAEHARIMRESVMALTQPILEHHHHHH” here?
**A.** soluble

**Q.** With “MSLIEPDHPDLSIGQQCKLLSIARSSYYYEPKGETEQNLGLMRRIDEQFLETPFFGVRQMTWHLRNDGHLVNEKRIRWLMRLMGLMPIYQKPNTNRPTKGHKTYPYLLRGLRVERPNQVWCSDITYLPMRRGFLYLVAIMDWHTRKVLSWRISNTLEAQFCVDALNEAIHKFGPPEIMNTDQGSQFTSFAWTDRLRRSGVRISPLAHENMRCRAADGRERSVPPLSWFASKPLSGNGQHLHREAVAHPEIRVRLPACLGDRFGDKGGHPEMDDLLQPPAPAFSPRRQATGAGLLAEKEGHHHHHH” as the sequence, how does the “soluble on expression in E. coli” value read?
**A.** not soluble

**Q.** Which “soluble on expression in E. coli” value does the source give for “MGSDKIHHHHHHMTSRSPFESFVWQSEIFNCQSNDIDAFYAQLAEEVNRLGLKKNTLGSVDSFAINLYQSASQRSDLPSLLISSGFHGEEAAGPWGMLHFLRGLQPALFERVNLSLLPLVNPTGFKAGHRFNRFGENPNRGFTLENGKPTPNEHTSLEGKLLLEHAQLLCAASRDGILTCHEDVLMNETYVYSFEPTQTPGRFSLGLRDALGQYFKLAKDGFIDECPVTDGVIFNHFDTSFEAFLVRSGAKLAACSETPGQEDFDRRVQANSAAMGQFIAHCAPIL” here?
**A.** not soluble

**Q.** Which “soluble on expression in E. coli” value does the source give for “MGSDKIHHHHHHMAKLLPYQKRWINDRAPVKFWEKSRRIGASWGDAADSALVASKVKDDGGMSTYYLSYNKDMTRQYVADVAGWAKKFNLVAGELEEIVLADEDKDVTIYQVRFASGHVVQGLSSNPSNLRSKQGRVRIDEAAFVEDLGELLKAAIALTMWGGDVAVISTHNGEDSEFNQYIQDIRAGKREYSLHRTDLDDALAEGLYKAICSAKGLTWSVEAEIRWRQKLIADYGDGADEELFCVPSRSSGNWLSRNLIEPCMSAEIPVLRWSPPTANFVDWPLDRAYREVQDWCEGELRPLLDKLHREYVGCRHFFGEDFGRSGDLTVDVPLLELENLSLVTPFLLELRNAPYRTQEQMLAYFVDRLPRFSGGALDARGNGQALAEYARQRYGPELIQEVMLSQGWYREHMPPLKARLEDRTILLPKDAGVLDDLRGIKVFKGIARPPEASIKGKDGQRHCDSAVALALALYACNSIEAGEEWACATAGGGMARRMTHGY” here?
**A.** not soluble

**Q.** With “MSLAQWNKQDSIRLQELLNGDGELKINTEAVKSIHFDFQSDKDNIKGTPIMSEDKPWMKFLKDLPKNFGDTTKWVRPNFVRLTPYTPYTTWHEDPVNDPIFLKRKDSLTISWKLNIKLIPGLRNGYVILPAGMDQTVTPSNNPLIGGLDADKFLYESLTKRGRAIRRNRNRAKGWKIYQSYVPTRQDSILFPRISKVSEQDSLPKQDTLLIKKDSAIINQNSLLLKDKINGKDQTEGHHHHHH” as the sequence, how does the “soluble on expression in E. coli” value read?
**A.** soluble

**Q.** For “MATGTATEKPKIVWNEGRHRFETDDHEAFIEYKMKNDGKVMDLVRTFVPPSKAGLGLASHLCVAAFEHASEHSFSIIPTCSYVSVYISSFLKKLR”, which “soluble on expression in E. coli” value is on record?
**A.** not soluble

**Q.** With “MKIYSQGDQAIVVSIEKNVSQRLTEDLLSLRAYLIDKSYPFITEIVATESDLMICYDARDMIKHHHIQSPFLYMKALIDSIKLEIRHHRQQLQAKYIQKQQSVNIPVIYGGEFGPDLQHLLKHLKLKLEDFVKLHTQEKYFVSMMGYSPGFPYLTGMNKKLHVNHTSEKKKFIPCGSVIMEGKKCGIVTTDTYNDWLVIGYTPVQLFFPEQQNFTLLKLGDNVTFESKDINEIELGDYKTCQSLEHHHHHH” as the sequence, how does the “soluble on expression in E. coli” value read?
**A.** not soluble
